Experimental data published in a protein production outcome set (Wang et al. 2014).

Assay: label from the status in PepcDB records
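Also: failed if final PepcDB status was selected cloned or expressed and not failed if soluble or beyond.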

Sequence | protein production
MTRTFDTPLPIDDALDELTAALEASNTAVLVAPPGAGKTTRVPLALLDAPWLRNQKIIVLEPRRIAARASAERMAKTLSEKAGERIGYRVRFGSKVSRATRIEVVTEGIFTRQILDDPELNGVAAVLFDEFHERSLDADLGLALARDAQQGLREDLRILVMSATIDGARVARLLGDAPVVESLGRAFPVETRYLGRRSDAPLERQMAEAIAQALRAETGSVLAFLPGAAEIRRTETMLRERVQDPAVEIVPLFGALDAAVQDRAIQPAPKGQRKVVLATSIAETSLTIEGVRIVVDCGLSRVPRYEPDLGLTRLETVRASRAAVDQRRGRAGRIEPGVCYRLWDEPQTASLPAYTQPEILSADLSSLLLDLAQWGVADPSSLAFLDPPPQPALKEARELLGELGALDPDGRITDEGRSLRAMALPPRLARMIVDAARHDCAKDAAEVAAILTERGLGGDSADLDNRRDQFRRDRSQRASSARQMAQRWATQAASSSPSPQDAGELSSGVLLAFAFPDRVAKNRGNGSFTLANGRGAAVEQTSALARAPYLAVGELTGSAAQGRILLAAPIALSEIELHFGDQITDADEVSFDRSAMALRARRRRALHAITLSEAPLALTPSEQTARVLAEGLVVAGLDRLPWSKQLQQWRGRVMFLRKAEGDPWPDLSDAALAETRENWLVPALFDKTGLKDFSASDLSDALMNLLPWELRARLDREAPTHFEAPTGSKLPIDYEAEQGPTIAVRLQELFGLTTHPSVAGGAVPLVLELLSPAHRPVQVTRDLPGFWRGSYAGVRADLRGRYPRHPWPEDPASAPPTRRAKPKGT | failed
MTRYALLVRGINVGGKNKVVMAELRQELTNLGLEKVESYINSGNIFFTSIDSKAQLVEKLETFFAVHYPFIQSFSLLSLEDFEAELENLPAWWSRDLARKDFLFYTEGLDVDQVIATVESLELKDEVLYFGKLGIFWGKFSEESYSKTAYHKYLLKVPFYRHITIRNAKTFDKIGQMLKK | not failed
MTSAREAFDLYRAGRTAEAAALCERLVAAAPSVEAWHLLGVARLELGAAQAALTALDAGLALDPVRPGLLSARTLALTSLHRDDEAVVAARAALAVDPDNPPVFNALAVSLQRLGGFSEALAAIDHAVAAAPREAAYRAHRAALLVLLNRPAEAARDLEAVLEVNPSHPRVAGDLMWARRQTCDWREDAALDMLVKADLKLGRAGVAPFAALALFDLPVLHRRCATLSAPPSVPAPVWPVRRPGERLRVAYLSSDLHEHATARLLAGVLEAHDRSRFEIFAVSYGPETGGAMQERLRAACEHWIEARRLSDAEIALKCRQQGVDIAVDLKGYTQDGRPGILAHRAAPLQVSWLGYPGTLGAHADVVLADAVTLPPGAETNWSEAVVRLPCYQPNDGLTSVIPAPSRADMGLPERVRVFCCFNNPAKITPEVFATWMAILRAAPDSVLWLYAGAPGAADNLRGHARAAGVAPERLVFAEPAPHEAHLARHVLADLVLDTWPYGAHTTASDALRMGVPVLTLPGESFASRVGASLATAIGMTELIATSRADYVAKALAMAADGALKPRVAEAVRRSNLFDPVAFARSLETVYAGLVRR | failed
MTSFDRPFEAARPDGENPSAHETLAEGGRLRPEATYTIPARQGRAIRMAQGEALMVINRDGSQIGDFWAFVEGDCGEYLSMEHLRPTLRRVSPRPGDVLVSNRRRPILTLLEDSSPGVHDTLVASCDVHRYAQLGHEGYHDNCTDNLRMALGALGLRPTTVPCPLNLWMNTPVVEGGAMEWRPPVSRRGDHVLFRAELDVVVVISCCPMDLLPINGEEAQPRALDVRLRPRPA | not failed
MTSFVGTRGRGNCGTAPGRSPSLQAHGKMGRRREPGVPEESCCSHDACCEKAAKPRVEEVATSGCADCCSAGVPVFDGLDPRYKRILWTVIAINAAMFVSEMVAGHLAGSQALKADALDFLADTVTYGLSLSVIGASLKTRATAALFKGVSLSAMAAWVFGSTVYQTLILGLPRAELMGAMSLAALAANLTSVLLLARYKDGDANVRSVWLCSRNDAVGNVIVMIAAVGVFGTGTAWPDLAVAAVMAGIFLTSSLQILRQAWAEYRGGQAAATA | failed
MTSGIDLQNSFLQSLQGFGLPPGLAKLFWIPLPSILMIIGATVGVLVVVWLERKISAAAQQRIGPEYAGPLGVLQPVADGIKLVFKEDVVPAKADPWLFTLGPVLVVLPVFLSYLIVPFGQNLVITDINVGIFLWIALSSIAPIGLLMSGYASNNKYSLLGGLRAAAQSISYEIPLSLAVLAIVMMSNSLSTIDIVDQQSGYGILGWNIWRQPVGFLIFWIAALAECERLPFDLPEAEEELVAGYQTEYAGMKFALFYLGSYVNLVLSALVFSVLYLGGWDFPIPLENVANWLGVAPTTSWLQVLMAALGITMTVLKSYFLIFIAILLRWTVPRVRIDQLLNLGWKFLLPVALANLLITAALKLTFPMAFGG | failed
MTSLRRRCIRQVPNTLTVGRFALVPVAAGFIWTGDLRAAFWVFVAAGITDALDGWLARVLDARTALGATLDPLADKALLVATFFTLALTGAIPLWLLGLVALRDALILAGFAWLRLRAGRPIRVTPNILGKANTLAQILLCAAVIGASAFTLDLSAVIAVLTPVVAATTIISGIAYLRMWLRRGWDGQQAHDRIERTRRNNQQRDDR | failed
MTSPKHPPIRRDWLSKILAGTLLGFTLALGCSGLLVLALPQLPLPVKAQLAMWVVMPLWLGVLSGCFAFRDGRRAWLWLGGATALVLDLLVVARLS | failed
MTSPVQATPEPQPGLVARLSAEALGSMFVVVAAVGVGIFSNPGAAPLPAALATGLTVTAAMLAFGYVSGGHFNPAITLGNLIAGRIRAVAAVAYVAAQIIGSVVGAALMYFVVTTVPVLTDARAAFDVVAPGFGDHASAQTQMAGVLLVEVLGSALLVAVFLGATAGRRALPAMAPFAVGLAMAVLLQLGQVLGNLPFNPARATAQAFFSSPWAIEGLWLFWVAPLMGAALAGLAFRGFQGLSQAAVADTDHFHGGTDGINDAFDADDEPAEDSEVKEEAAAKADIAPSRAVPTVPVTDDARDFFDGKKGK | failed
MTSQGRAAMVRRMHDPQQPIRWRDLDLDPTHWVREILRVLGLALSRLWGRDVMLYVGGVSFFALLAVFPGLAILIGLYSLFLTPETAAWQAVKLAELIPSGARSIVQDELSRLAHAPGQTISLQSGVVLIVGAYAAHRGFKALLAGLSFIHDEENQRGFLGFNLMALLVLMAAFGLLFIMSGIFLTLRLLGTALELRPLAGVSWIQSEWTWASFGIVVGMSLVYRYAMSRQIVGWRASIAGGVAAAALCVFMSWASAFYVEKVVHLGATYGSVSAVIIFLIWLSWSVNAIFFGGALATEVEIALDERPRALLEGPRPIALKAPSESES | failed
MTSREDEIRDFLATHGYADWNRTPLAGDASSRRYQRLRSPTGAKAVLMDWSPEEGGDTQPFVDLAQYLRNLDISAPEIYAEEHARGLLLIEDLGDALFTEVINNDPAQEMPLYRAAVDLLIHLHDAQTPELARLDPETLSEMTRLAFSEYRYAILGDAAEDNRKRFEHRFAQILSAQLEGDMVFVHRDFHAQNLLWLPEREGLARVGVIDFQDAKLGHRAYDLVSLLQDARRDVPAQVEAQMIDHYIQATGVDESHFRSAYAVIAVQRNMRILGIFARLSQRFGKRHYIEFVPRVWAHFERGLAHPALASAAEEILNALPAPAPEVLERLRA | not failed
MTSRFMLIFAAISGFIFVALGAFGAHVLSKTMGGVEMGWIQTGLEYQAFHTLAILGLAVAMQRRISIWFYWSSVFLALGTVLFSGSLYCLALSHLRLWAFVTPVGGVSFLAGWALMLVGAIRLKRKGVSHE | failed
MTSSLQPDASRDAQREQVIAQLQQVIQRVPEQSEFTNTRRYQLLGPLFTLISLGMLAWGIQQGKTGMLLCGLFLSALFALVTWQHRHAGQHAFMRLTRRQLFVDSLSAPVNLTDVVDVHVKDEGLLTLQQLTLRPGSPLPTHRPVRQVFGNQAMALKSPEPHIRIHSAGLMSGGRKLAIDDIAALLDAYCQAANAQQQLDELQGRG | failed
MTSSPELARAVAATLARHVTDVVICPGSRNSPLSLELIARDDIRVHTRIDERSAAFLALGLARSSKRHVAVVTTSGTAVANCAPAMIEAAYSHTPLIMVSADRPERLHGTGANQTIEQRGIFNVVDTDHVVDITDLNSISFARNVIHINVALDVPLVDVLPEVGDPVERVREVIEV | failed
MTSSTETTATTPQVAVNDIGNEEAFLAAIDETIKYFNDGDIVDGVIVKVDRDEVLLDIGYKTEGVIPSRELSIKHDVDPNEVVAVGDEIEALVLQKEDKEGRLILSKKRAQYERAWGTIEKIKEEDGIVTGTVIEVVKGGLILDIGLRGFLPASLVEMRRVRDLQPYVGKELEAKIIELDKNRNNVVLSRRAWLEQTQSEVRQTFLTTLQKGQVRSGVVSSIVNFGAFVDLGGVDGLVHVSELSWKHIDHPSEVVEVGQEVTVEVLDVDMDRERVSLSLKATQEDPWQQFARTHQIGQVVPGKVTKLVPFGAFVRVDEGIEGLVHISELAERHVEIPEQVVQVNDEIFVKVIDIDLERRRISLSLKQANEAFGADPSTVEFDPTLYGMAASYDDQGNYIYPEGFDPETNDWLEGYETQREAWETQYAEAQTRFEQHQAQVIKSREADEKAAAEGVDTAGAAPAASGGGGGGSYSSEGGDNSGALASDEALAALREKLAGGQS | failed
MTSTFNPRECKLSKQEGQNYGFFLRIEKDTEGHLVRVVEKCSPAEKAGLQDGDRVLRINGVFVDKEEHMQVVDLVRKSGNSVTLLVLDGDSYEKAVKTRVDLKELGQSQKEQGLSDNILSPVMNGGVQTWTQPRLCYLVKEGGSYGFSLKTVQGKKGVYMTDITPQGVAMRAGVLADDHLIEVNGENVEDASHEEVVEKVKKSGSRVMFLLVDKETDKRHVEQKIQFKRETASLKLLPHQPRIVEMKKGSNGYGFYLRAGSEQKGQIIKDIDSGSPAEEAGLKNNDLVVAVNGESVETLDHDSVVEMIRKGGDQTSLLVVDKETDNMYRLAHFSPFLYYQSQELPNGSVKEAPAPTPTSLEVSSPPDTTEEVDHKPKLCRLAKGENGYGFHLNAIRGLPGSFIKEVQKGGPADLAGLEDEDVIIEVNGVNVLDEPYEKVVDRIQSSGKNVTLLVCGKKAYDYFQAKKIPIVSSLADPLDTPPDSKEGIVVESNHDSHMAKERAHSTASHSSSNSEDTEM | failed
MTSTVEFINRWQRIALLSQSLLELAQRGEWDLLLQQEVSYLQRIETVMEKQTPPGITRSIQDMVAGYIKQTLDNEQLLKGLLQQRLDELSSLIGQSTRQKSLNNAYGRLSGMLLVPDASGAS | failed
MTSYIILKHLHMTTAYLTITLFALRLLLDAVGRPGWRQTPLRFIPHINDTILLVAAIALVFVAGYASAMPGWLITKIVLLFGYIIAGVFALKTTVGKPARIVAAVLALVQVSAIFHLAMAKPF | failed
MTTAKRDTYTPETLLSVAVQVFIERGYDGTSMEHLSKAAGISKSSIYHHVTGKEELLRRAVSRALDELFGILDEEHARVGTAAERLEYVVRRMVEVLMAELPYVTLLLRVRGNTGTERWALERRREFDHRVAALLKDAAAEGDVRADVEVRLATRLVFGMINSIVEWYRPEGPDGRSDASGASGVSGAGEREVVDAVARLVFGGLRKAS | not failed
MTTEPAQALSPLGVLPPAGPTCVHLPLNVTPQELARYAVGLANARGGTVMVGVDVVGQEHAERDAGELHPLMITHAIFELSGGRLTVNVQHHRVPGGARVLTVFVPQAPYVLAAPDGAVMAWDGAHLVPVLPGEGEPVADRDYTAVVPPDASLADLDPAEVARLRLLGRRIDAANLPDLDFLQELGLLVPSGGALRPTLAAILLAGTDAALRAHLPQAEVCYFHHQANDVEFQFREDLRRPIPSLLLRLSELIQARNRFTPVQVGLFRVEVWDHDESVYREALLNALTHRDYTLRDVVHVHHYPDRLEIMNPGGFPGGITPGNILRHQPKRRNPLLAGVLARLGLVEQAGVGVDKMFSLMLRHGKEPPEYVNYPDAVTLTLHGSAFDSDFVRFVARKQEELPQLSLDMLIVLSLLSREGEAPRAQLARALQLPEDRTPRLLRQMEDLALITRAGIGRGIAYHLAPDVAAALGQEKQRGLSALPGLPEPAERPTLLAPPAAVAPAPAPAAPRRVSEPAPTSHAGPSPSETRAIALALARERGRVRNADLREVCGLTNQQAWRALRSLVNAGLLRRLGSGTRDAYYELGEGAGRREEG | failed
